Measured values published in the supplement of paper PMC9170038.

Assays:
[1] = test system: MS2 coat protein; assay: apparent KD of MS2 coat protein, switch ON state; designed switch direction (-1 OFF switch, 1 ON switch): -1; higher = weaker reporter binding; conditions: FMN input: 0 or 200 uM; Eterna round: R93 (includes R88 designs)
Outline: (§1)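 Designed RNA switches were transcribed on-chip from Illumina sequencing clusters. They were then titrated with SNAP-549-labelled MS2 coat protein (twofold steps, 0.7 or 1.5 nM to 3 µM; 0.8–1.5 h to 10–20 min per step) in 100 mM Tris-HCl pH 7.5, 80 mM KCl, 4 mM MgCl2, without or with constant ligand. Apparent KD is the per-design median of normalised cluster binding-curve fits.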

[2] = test system: MS2 coat protein; assay: apparent KD of MS2 coat protein, switch OFF state (with FMN for OFF switches, without FMN for ON switches); designed switch direction (-1 OFF switch, 1 ON switch): -1; higher = weaker reporter binding; conditions: FMN input: 0 or 200 uM; Eterna round: R93 (includes R88 designs)
Outline: as §1

Sequence	apparent KD of MS2 coat protein [1] [µM]	apparent KD of MS2 coat protein [2] [µM]
AACAAACAUGAGGAUCACCCAUGUCAGGAUAUGCAAAUAACAAACAACAAACAACAAAGCAGAAGGGAUAGGAA [Mat - Exclusion 1 - Eli mod - D52]	0.0233	0.0212
AACAAGUCAGGAUAUGUUAAAGGUUACGAAAGGGAUAAAGGGCAGAAGGGACAUGAGGAUCACCCAUGUAAUAA [And All that Jazx]	0.048	0.0382
AACAAGUCAGGAUAUUCGAAAAGUAAAUAAGUAAAACAAAAGAAGAAGGGACAUGAGGAUCACCCAUGUAAAUA [JR_Exc004_Sub016]	0.0461	0.0279
AACAAGUGAGGAUAUCGGAAAAGUAAAUAAGUAAAACAAAACGAGAAGGCACAUGAGGAUCACCCAUGUAAAUA [JR_Exc004_Sub014]	0.017	0.0174
AACAGGUUAGGAUAUGUGUAACAAAUAAAAAAAAUAUAAACACAGAAGGAACAUGAGGAUCACCCAUGUUAACA [May 28]	0.0244	0.017
AACAGUACAGGAUAUACAUGAGGAUCACCCAUGUAAAAAUAAUAAAAGGGCUCAAAAAGUAGAAGGGUACUGGA [Moding Maslow revisited (73) 15]	0.0312	0.0663
AACAGUACAGGAUAUACAUGAGGAUCACCCAUGUCACAACAAAGCAGCGCAACACAAAGUAGAAGGGUAAUGGA [Ruby 15]	0.0346	0.0404
AACAGUACAGGAUAUACAUGAGGAUCACCCAUGUGAAAAUAAAGUGGCGUACCACAAAGUAGAAGGGUACUGAA [Mat - Exclusion 3 - JL mod - D26]	0.0267	0.124
AACAGUACAGGAUAUACAUGAGGAUCACCCAUGUGAAAAUAAAGUGGCGUACCACGAAGUAGAAGGGUACUGGA [Ruby 58]	0.0211	0.0725
AACAGUACAGGAUAUACAUGAGGAUCACCCAUGUGAAAAUUAAGUGGAGAACCACAAGGUAGAAGGGUACUGGA [Mat - Exclusion 3 - Eli mod - D62]	0.0424	0.127
AACAGUACAGGAUAUACAUGAGGAUCACCCAUGUGAAAAUUAAGUGGGAGACCACAAAGUAGAAGGGUACUGAA [Mat - Exclusion 3 - Eli mod - D60]	0.126	0.0623
AACAGUACAGGAUAUACAUGAGGAUCACCCAUGUGAACUUCAAGUGCCGUAGCACGAAGUAGAAGGGUACUGGA	0.0634	0.497
AACAGUACAGGAUAUACAUGAGGAUCACCCAUGUGAGAAUUAAGCAGCGUAACACAAAGUAGAAGGGUAAUGGA [Ruby 19]	0.0399	0.0439
AACAGUACAGGAUAUACAUGAGGAUCACCCAUGUGAGAAUUAAGUGGAAAACCACAAAGUAGAAGGGUACUGGA [Mat - Exclusion 3 - JL mod - D3]	0.0266	0.234
AACAGUACAGGAUAUACAUGAGGAUCACCCAUGUGAGAAUUAAGUGGCGAACCACAAAGUAGAAGGGUACUGGA [Mat - Exclusion 3 - JL mod - D1]	0.0431	0.469
AACAGUACAGGAUAUACAUGAGGAUCACCCAUGUGAGAAUUUAGCAGCGUAACACACAGUAGAAGGGUAAUGGA [Ruby 21]	0.0454	0.0393
AACAUGUAAGGAUAUCUAAGAAAAGAAAAGAAAGAAAAGAAAGAGAAGGUACAUGAGGAUCACCCAUGUAAGAA [EteRNA is fun!]	0.0327	0.0183
AACAUGUGAGGAUAUAUAAGAAAAGAAAAGAAAGAAAAGAAAUAGAAGGCACAUGAGGAUCACCCAUGUAAGAA [EteRNA is fun!]	0.03	0.0262
AACGUACAUGAGGAUCACCCAUGUUAGGAUAUGCCGGGUUAGAGCCAACUAAAAAACCGUAGAAGGGACGAAAA [Bilbo Confounded 11 - Jieux - Exclusion 1]	0.0276	0.0302
